Target: T1, G3p N1 (Filamentous phage, UniProt O80297)
T1 chain: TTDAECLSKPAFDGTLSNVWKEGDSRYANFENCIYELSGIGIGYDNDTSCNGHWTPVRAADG
Assay: SPR

B1: TolA TolAIII (protein)
chain: GGGAKGNNASPAGSGNTKNNGASGADINNYAGQIKSAIESKFYDASSYAGKTCTLRIKLAPDGMLLDIKPEGGDPALCQAALAAAKLAKIPKPPSQAVYEVFKNAPLDFKP
  Kd: 14.9 µM
